Assay results as given in the supplement of paper PMC9112550, “Optimization of the antimicrobial peptide Bac7 by deep mutational scanning” (BMC Biology, 2022).

Each sequence was assayed on Escherichia coli TOP10 (assay: shrunken log2 fold change of peptide-encoding DNA abundance (4.5 h post-induction vs induction); higher = less antimicrobial activity (less host growth inhibition)). Details: time post-induction: 4.5 h; library: site-saturation at positions 5, 18, 19, 20.
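Note: peptides expressed intracellularly from a pBAD plasmid library in pooled LB shake-flask culture, induced with 0.3% L-arabinose, DNA abundance read by NGS, three biological replicates, DESeq2 with apeglm shrinkage.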

Sequence | shrunken log2 fold change
RRIRIRPPRLPRPRPRPAHCPRP | 0.0837
RRIRTRPPRLPRPRPRPRDHPRP | 0.0565
RRIRYRPPRLPRPRPRPMPQPRP | -0.318
RRIRVRPPRLPRPRPRPPWCPRP | 0.497
RRIRGRPPRLPRPRPRPLSQPRP | 0.872
RRIRYRPPRLPRPRPRPAVDPRP | -0.0338
RRIRVRPPRLPRPRPRPWAPPRP | 0.0631
RRIRMRPPRLPRPRPRPHTEPRP | 0.191
RRIRHRPPRLPRPRPRPIPPPRP | -0.0356
RRIRTRPPRLPRPRPRPLMVPRP | -0.32
RRIRCRPPRLPRPRPRPHNEPRP | -0.535
RRIRCRPPRLPRPRPRPHGLPRP | -0.0989
RRIRKRPPRLPRPRPRPEKSPRP | 0.0144
RRIRTRPPRLPRPRPRPLIMPRP | -0.718
RRIRCRPPRLPRPRPRPCTKPRP | -0.507
RRIRTRPPRLPRPRPRPHNCPRP | -0.113
RRIRHRPPRLPRPRPRPGARPRP | 0.335
RRIRKRPPRLPRPRPRPVVNPRP | 0.000998
RRIRNRPPRLPRPRPRPCMFPRP | -0.68
RRIRARPPRLPRPRPRPTKFPRP | 0.0943
RRIRLRPPRLPRPRPRPNFWPRP | 0.199
RRIRLRPPRLPRPRPRPTENPRP | -0.171
RRIRPRPPRLPRPRPRPKKPPRP | 0.0432
RRIRARPPRLPRPRPRPGMSPRP | 0.649
RRIRTRPPRLPRPRPRPTQMPRP | 0.451

Sequence | shrunken log2 fold change
RRIRDRPPRLPRPRPRPWDFPRP | 0.238
RRIRPRPPRLPRPRPRPGIDPRP | -0.0536
RRIRIRPPRLPRPRPRPSYQPRP | -1.32
RRIRARPPRLPRPRPRPLRWPRP | 0.809
RRIRYRPPRLPRPRPRPRGEPRP | -0.101
RRIRCRPPRLPRPRPRPDWKPRP | 0.0808
RRIRWRPPRLPRPRPRPIMNPRP | -0.473
RRIRKRPPRLPRPRPRPMQTPRP | 0.753
RRIRRRPPRLPRPRPRPIMGPRP | -0.267
RRIRNRPPRLPRPRPRPVFMPRP | -0.181
RRIRVRPPRLPRPRPRPTYGPRP | -0.838
RRIRRRPPRLPRPRPRPCQSPRP | 0.0448
RRIRDRPPRLPRPRPRPGSCPRP | 0.127
RRIRSRPPRLPRPRPRPAVLPRP | -0.355
RRIRDRPPRLPRPRPRPCDSPRP | -0.0465
RRIRERPPRLPRPRPRPKYTPRP | -0.297
RRIRWRPPRLPRPRPRPPPYPRP | 0.0878
RRIRTRPPRLPRPRPRPDNKPRP | -0.272
RRIRLRPPRLPRPRPRPLCRPRP | -0.496
RRIRYRPPRLPRPRPRPHELPRP | -0.00663
RRIRRRPPRLPRPRPRPEEMPRP | 1.38
RRIRDRPPRLPRPRPRPKPRPRP | 0.711
RRIRWRPPRLPRPRPRPRIPPRP | 0.0219
RRIRPRPPRLPRPRPRPSECPRP | -0.651
RRIRNRPPRLPRPRPRPTRSPRP | -0.177

Sequence | shrunken log2 fold change
RRIRRRPPRLPRPRPRPVIKPRP | -0.121
RRIRWRPPRLPRPRPRPQPKPRP | 0.294
RRIRFRPPRLPRPRPRPNNVPRP | -0.179
RRIRMRPPRLPRPRPRPTIRPRP | 0.0273
RRIRKRPPRLPRPRPRPGICPRP | 0.0428
RRIRKRPPRLPRPRPRPMQWPRP | 0.263
RRIRWRPPRLPRPRPRPLYCPRP | -0.22
RRIRCRPPRLPRPRPRPTDKPRP | -0.243
RRIRVRPPRLPRPRPRPSPQPRP | 0.0525
RRIRNRPPRLPRPRPRPVLTPRP | -0.235
RRIRTRPPRLPRPRPRPTRDPRP | 0.136
RRIRPRPPRLPRPRPRPRVDPRP | 0.263
RRIRERPPRLPRPRPRPIKVPRP | -0.0179
RRIRTRPPRLPRPRPRPWKHPRP | -0.529
RRIRHRPPRLPRPRPRPFQSPRP | -0.00192
RRIRHRPPRLPRPRPRPKILPRP | 0.0673
RRIRWRPPRLPRPRPRPLYYPRP | -0.762
RRIRHRPPRLPRPRPRPFGNPRP | -0.119
RRIRHRPPRLPRPRPRPIGTPRP | -0.0693
RRIRLRPPRLPRPRPRPTYHPRP | -0.358
RRIRKRPPRLPRPRPRPQLDPRP | 0.207
RRIRYRPPRLPRPRPRPTETPRP | -0.00564
RRIRWRPPRLPRPRPRPDDEPRP | 0.606
RRIRPRPPRLPRPRPRPIAHPRP | 0.125
RRIRDRPPRLPRPRPRPFRLPRP | -0.0192

Sequence | shrunken log2 fold change
RRIRDRPPRLPRPRPRPEPMPRP | 0.035
RRIRVRPPRLPRPRPRPGFEPRP | 0.554
RRIRFRPPRLPRPRPRPNPFPRP | 0.0605
RRIRYRPPRLPRPRPRPWYPPRP | -0.485
RRIRTRPPRLPRPRPRPGHKPRP | -0.106
RRIRYRPPRLPRPRPRPADTPRP | -0.00151
RRIRQRPPRLPRPRPRPRWCPRP | -0.0737
RRIRSRPPRLPRPRPRPQFWPRP | 0.268
RRIRYRPPRLPRPRPRPAIPPRP | -0.66
RRIRVRPPRLPRPRPRPVACPRP | 0.167
RRIRERPPRLPRPRPRPQRVPRP | -0.167
RRIRIRPPRLPRPRPRPYDNPRP | 0.0332
RRIRLRPPRLPRPRPRPCTGPRP | -0.0081
RRIRRRPPRLPRPRPRPEHVPRP | 0.232
RRIRCRPPRLPRPRPRPCFMPRP | -0.416
RRIRSRPPRLPRPRPRPAYRPRP | -0.154
RRIRARPPRLPRPRPRPSEAPRP | 0.52
RRIRCRPPRLPRPRPRPAQPPRP | 0.366
RRIRCRPPRLPRPRPRPFCTPRP | -0.401
RRIRFRPPRLPRPRPRPPCCPRP | 0.0896
RRIRHRPPRLPRPRPRPHQKPRP | -0.0284
RRIRGRPPRLPRPRPRPDCYPRP | 0.191
RRIRERPPRLPRPRPRPVWYPRP | -0.383
RRIRLRPPRLPRPRPRPNTYPRP | -0.522
RRIRLRPPRLPRPRPRPSNRPRP | -0.599

Sequence | shrunken log2 fold change
RRIRHRPPRLPRPRPRPPSPPRP | 0.169
RRIRSRPPRLPRPRPRPCEAPRP | 0.389
RRIRTRPPRLPRPRPRPWCPPRP | -0.139
RRIRHRPPRLPRPRPRPECKPRP | -0.0985
RRIRCRPPRLPRPRPRPWQAPRP | 0.204
RRIRHRPPRLPRPRPRPCAEPRP | -0.228
RRIRARPPRLPRPRPRPCSLPRP | -0.272
RRIRVRPPRLPRPRPRPYCSPRP | -0.0744
RRIRYRPPRLPRPRPRPCIQPRP | -0.172
RRIRARPPRLPRPRPRPSTWPRP | -0.0645
RRIRLRPPRLPRPRPRPVAWPRP | 0.225
RRIRRRPPRLPRPRPRPRGNPRP | 0.524
RRIRWRPPRLPRPRPRPVILPRP | -0.208
RRIRERPPRLPRPRPRPNDLPRP | -0.016
RRIRMRPPRLPRPRPRPGIAPRP | 1.11
RRIRWRPPRLPRPRPRPEDTPRP | -0.0372
RRIRFRPPRLPRPRPRPIFHPRP | -0.295
RRIRHRPPRLPRPRPRPMIFPRP | -0.251
RRIRDRPPRLPRPRPRPHWVPRP | 0.0635
RRIRPRPPRLPRPRPRPCPEPRP | -0.123
RRIRPRPPRLPRPRPRPHATPRP | 0.323
RRIRERPPRLPRPRPRPHMEPRP | -0.118
RRIRPRPPRLPRPRPRPCFLPRP | -0.382
RRIRPRPPRLPRPRPRPGEVPRP | 0.605
RRIRMRPPRLPRPRPRPSWTPRP | -0.0874

Sequence | shrunken log2 fold change
RRIRARPPRLPRPRPRPNPQPRP | 0.002
RRIRVRPPRLPRPRPRPEVEPRP | -0.0626
RRIRGRPPRLPRPRPRPLPVPRP | 0.572
RRIRTRPPRLPRPRPRPGGYPRP | -0.0912
RRIRNRPPRLPRPRPRPGPLPRP | 0.0198
RRIRWRPPRLPRPRPRPAGIPRP | 0.186
RRIRLRPPRLPRPRPRPKHTPRP | 0.228
RRIRHRPPRLPRPRPRPAMPPRP | -0.0758
RRIRERPPRLPRPRPRPHQFPRP | 0.00386
RRIRSRPPRLPRPRPRPENPPRP | -0.143
RRIRLRPPRLPRPRPRPNFIPRP | -0.228
RRIRDRPPRLPRPRPRPLCDPRP | 0.287
RRIRARPPRLPRPRPRPQLQPRP | 0.426
RRIRLRPPRLPRPRPRPNYLPRP | -0.377
RRIRDRPPRLPRPRPRPQYTPRP | -0.31
RRIRVRPPRLPRPRPRPLVQPRP | -0.137
RRIRDRPPRLPRPRPRPENPPRP | 0.783
RRIRFRPPRLPRPRPRPFDPPRP | -0.135
RRIRWRPPRLPRPRPRPGKWPRP | 0.202
RRIRGRPPRLPRPRPRPLAIPRP | 0.567
RRIRMRPPRLPRPRPRPWFCPRP | -1.02
RRIRHRPPRLPRPRPRPTWFPRP | 0.17
RRIRQRPPRLPRPRPRPETIPRP | -0.0395
RRIRLRPPRLPRPRPRPQGCPRP | 0.0879
RRIRIRPPRLPRPRPRPMHQPRP | -0.121
